{"source": "paper doi:10.1101/2023.05.01.538945", "about": "“Structural basis of Gabija anti-phage defense and viral immune evasion” (bioRxiv, 2023)", "binders": {"B1": {"name": "Bacillus cereus VD045 GajA (Gabija protein A), co-expressed with GajB, tag removed (enzyme)", "chain": "KFSNITIKNFRNFEKVNINLDNKNVIFGMNDIGKTNFLYALRFLLDKEIRKFGFNKSDYHKHDTSKKIEIILTLDLSNYEKDEDTKKLISVVKGARTSANADVFYIALESKYDDKELYGNIILKWGSELDNLIDIPGRGNINALDNVFKVIYINPLVDLDKLFAQNKKYIFEESQGNESDEGILNNIKSLTDQVNQQIGEMTIIKGFQQEITSEYRSLKKEEVSIELKSEMAIKGFFSDIIPYIKKDGDSNYYPTSGDGRRKMLSYSIYNYLAKKKYEDKIVIYLIEEPEISLHRSMQIALSKQLFEQSTYKYFFLSTHSPELLYEMDNTRLIRVHSTEKVVCSSHMYNVEEAYGSVKKKLNKALSSALFAERVLLIEGPSEKILFEKVLDEVEPEYELNGGFLLEVGGTYFNHYVCTLNDLGITHIIKTDNDLKSKKGKKGVYELLGLNRCLNLLGRENLDEITIDIPEDIKGKKKKERLNERKKEIFKQYKNEVGEFLGERIYLSEIDLENDLYSAIGESMKRIFENEDPVHYLQKSKLFNMVELVNNLSTKDCFDVFEHEKFACLKELVGSDRG", "notes": "GajA (Gabija protein A), Class 2 OLD nuclease, Bacillus cereus VD045, IMG ID 2519684552; codon-optimized synthetic gene; GajA chain of the GajAB crystal structure; The 5xGS linker probably stays on GajA after SENP2 cleavage (surmise); also called BcGajA; source: E. coli BL21(DE3) or BL21(DE3)-RIL, co-expressed with GajB, purified (Ni-NTA, SUMO2 cleavage by hSENP2, SEC); not shown: …"}}, "key": {"[1]": {"target": "the molecule itself", "assay": "crystal structure; GajAB co-expressed in E. coli and purified as a complex; hanging drop, 18°C, 100 mM HEPES-NaOH pH 7.5, 2.4% PEG-400, 2.2 M ammonium sulfate; 3.0 Å"}, "[2]": {"target": "the molecule itself", "assay": "SEC; 16/600 S200 (Superdex 200); purified recombinant BcGajA alone, BcGajB alone and the co-expressed BcGajAB complex"}, "[3]": {"target": "B1", "assay": "crystal structure; GajAB co-expressed in E. coli and purified as a complex; hanging drop, 18°C, 100 mM HEPES-NaOH pH 7.5, 2.4% PEG-400, 2.2 M ammonium sulfate; 3.0 Å", "details": "both partners purified"}}, "data": [{"binder": "B1", "values": [{"measurement": "stoichiometry N", "setting": "[1]", "result": 4}]}, {"binder": "Bacillus cereus VD045 GajA alone, C-terminal 6xHis (enzyme, GajA, Bacillus cereus VD045, IMG ID 2519684552; also called BcGajA; source: E. coli BL21(DE3) or BL21(DE3)-RIL, purified (Ni-NTA, SEC); for the Ni-NTA co-purification co-expressed with Shewanella phage 1/4 Gad1; not shown: 6xHis, C-terminal, kept) KFSNITIKNFRNFEKVNINLDNKNVIFGMNDIGKTNFLYALRFLLDKEIRKFGFNKSDYHKHDTSKKIEIILTLDLSNYEKDEDTKKLISVVKGARTSANADVFYIALESKYDDKELYGNIILKWGSELDNLIDIPGRGNINALDNVFKVIYINPLVDLDKLFAQNKKYIFEESQGNESDEGILNNIKSLTDQVNQQIGEMTIIKGFQQEITSEYRSLKKEEVSIELKSEMAIKGFFSDIIPYIKKDGDSNYYPTSGDGRRKMLSYSIYNYLAKKKYEDKIVIYLIEEPEISLHRSMQIALSKQLFEQSTYKYFFLSTHSPELLYEMDNTRLIRVHSTEKVVCSSHMYNVEEAYGSVKKKLNKALSSALFAERVLLIEGPSEKILFEKVLDEVEPEYELNGGFLLEVGGTYFNHYVCTLNDLGITHIIKTDNDLKSKKGKKGVYELLGLNRCLNLLGRENLDEITIDIPEDIKGKKKKERLNERKKEIFKQYKNEVGEFLGERIYLSEIDLENDLYSAIGESMKRIFENEDPVHYLQKSKLFNMVELVNNLSTKDCFDVFEHEKFACLKELVGSDRG", "values": [{"measurement": "stoichiometry N", "setting": "[2]", "result": 4}]}, {"binder": "Bacillus cereus VD045 GajB (Gabija protein B), untagged, co-expressed with GajA (enzyme, GajB (Gabija protein B), Superfamily 1A helicase, Bacillus cereus VD045, IMG ID 2519684553; codon-optimized synthetic gene; GajB chain of the GajAB crystal structure and of the GajAB-Gad1 cryo-EM structure; also called BcGajB) SREQIIKDGGNILVTAGAGSGKTTILVSKIEADLKENKTHYSIAAVTFTNKAAKEIEGRLGYSSRGNFIGTNDGFVESEIIRPFIKDAFGNDYPDNFTAEYFDNQFASYDKGLQVLKYQNILGTYSNPKKNFKFQLALDILKKSLVARQYIFSKYFKIFIDEYQDSDKDMHNLFMYLKDQLKIKLFIVGDPKQSIYIWRGAEPENFNGLIENSTDFNKYHLTSNFRCCQDIQNYSNLFNEETRSLIKEKNEVQNVISIADDMPISDILLKLTEEKQVLNIEAELVILVRRRNQAIEIMKELNEEGFNFIFIPQTPLDRATPNATLLKEVIKYVKNDRYSIYDLAAEIVGNLSSREIKEIQKIINELLVPNINQVLINQVLINLFAKLEITLDTREITAFTEVMMTNEFDIAFDTNEYLHKIFTVHSAKGLEFNQVIITASDYNVHYNRDTNEHYVATTRAKDKLIVIMDNKKYSDYIETLMKELKIKNIIKSI", "values": [{"measurement": "stoichiometry N", "setting": "[3]", "result": "1 GajB per GajA (4:4)"}]}]}
